Source: patent US20220409694A1, “POLYPEPTIDE, AND PREPARATION METHOD THEREFOR AND USE THEREOF” (SHANXI JINBO BIO-PHARMACEUTICAL CO., LTD., priority 2020, published 2022)

What was measured:
Assay in all cases: cell-based or functional assay
[1] = target: SARS-CoV S protein (pcDNA3.1-SARS-CoV-S, on pseudovirus) (SARS-CoV), P59594
[2] = target: WIV1-CoV S protein (pcDNA3.1-WIV1-CoV-S, on pseudovirus) (WIV1-CoV (SARS-like virus from bats))
[3] = target: Rs3367-CoV S protein (pcDNA3.1-Rs3367-CoV-S, on pseudovirus) (Rs3367-CoV (SARS-like virus from bats))

Binder: SLDQINVTFLDLEYEMKKLEEAIKKLEESYIDLKEL (modifications not checked) [EK1]
- Inhibitory Activity, IC50 (pseudovirus infection of HuH7, luciferase) [1]: 1.89 µM
- Inhibitory Activity, IC50 (pseudovirus infection of HuH7, luciferase) [2]: 2.94 µM
- Inhibitory Activity, IC50 (pseudovirus infection of HuH7, luciferase) [3]: 4 µM
